Literature values, collected in paper PMC7956452.

Target: RNA polymerase II CTD phosphorylated heptapeptide (Homo sapiens)

Kd: 154 µM
Substance: PQBP-1 (from UniProt O60828)
